Laboratory results: the Human Domainome abundance scans (Beltran et al. 2025)
± gives the uncertainty stated by the source.

B1: RAS guanyl-releasing protein 1, residues 539 to 593; numbered along this chain, O95267 (parent)
chain: GFPHNFQETTYLKPTFCDNCAGFLWGVIKQGYRCKDCGMNCHKQCKDLVVFECKK

Variants of: B1
Assay: abundance fitness (aPCA) (normalised: wild type 0, dead -1); higher = more abundant; growth selection in yeast, the domain comes from the species named
Conditions: Homo sapiens

Abundance fitness of substitutions, site by site:
N40: C -0.137 ± 0.06, T -0.042 ± 0.042, A -0.081 ± 0.063, P -0.144 ± 0.04, I -0.093 ± 0.049, D -0.023 ± 0.053, Y -0.285 ± 0.055, K -0.17 ± 0.063, G -0.08 ± 0.052, L -0.349 ± 0.045, Q -0.02 ± 0.072, M -0.087 ± 0.061, E -0.082 ± 0.061, R -0.142 ± 0.059, V -0.063 ± 0.044, H -0.127 ± 0.047
K35: H -0.029 ± 0.11, L 0.021 ± 0.044, C -0.13 ± 0.096, S -0.026 ± 0.07, M -0.266 ± 0.099, R -0.004 ± 0.067, G -0.118 ± 0.088, T -0.022 ± 0.08, A 0.041 ± 0.074, V -0.135 ± 0.07, D -0.096 ± 0.14, Q 0.1 ± 0.097, F -0.193 ± 0.098, E 0.039 ± 0.087, W -0.19 ± 0.095, N -0.297 ± 0.11, Y 0.024 ± 0.11, P -0.134 ± 0.11, I -0.009 ± 0.049
M39: D -0.242 ± 0.066, Y -0.1 ± 0.045, W -0.157 ± 0.058, I -0.115 ± 0.045, R -0.143 ± 0.048, G -0.097 ± 0.049, N -0.15 ± 0.049, L -0.122 ± 0.04, T -0.142 ± 0.048, Q -0.032 ± 0.067, C -0.455 ± 0.054, K -0.079 ± 0.055, A -0.111 ± 0.041, F -0.158 ± 0.051, P -1.03 ± 0.064, V -0.111 ± 0.046
D47: I -0.211 ± 0.1, P -0.054 ± 0.11, Q 0.083 ± 0.12, H -0.32 ± 0.17, C 0.212 ± 0.097, L -0.141 ± 0.063, G -0.05 ± 0.058, A -0.056 ± 0.09, M -0.204 ± 0.11, K -0.148 ± 0.096, R -0.177 ± 0.08, N -0.306 ± 0.14, T 0.047 ± 0.09, S 0.068 ± 0.082, Y -0.105 ± 0.14, V -0.113 ± 0.083, F -0.143 ± 0.41, W -0.142 ± 0.082
R33: W 0.004 ± 0.096, P -0.919 ± 0.13, Y -0.402 ± 0.12, E 0.129 ± 0.079, Q -0.262 ± 0.1, V -0.1 ± 0.046, L -0.078 ± 0.078, D -0.26 ± 0.14, A -0.167 ± 0.093, F -0.017 ± 0.06, G -0.134 ± 0.1, S -0.025 ± 0.058, C 0.122 ± 0.13, I 0.118 ± 0.076, N 0.286 ± 0.17, M 0.069 ± 0.083, K 0.121 ± 0.091
K46: C 0.129 ± 0.092, Y -0.052 ± 0.092, A -0.09 ± 0.12, T -0.069 ± 0.079, D -0.541 ± 0.35, N -0.337 ± 0.17, M 0.208 ± 0.088, F -0.228 ± 0.14, W -0.032 ± 0.053, E -0.013 ± 0.087, R -0.01 ± 0.066, V -0.251 ± 0.11, G -0.018 ± 0.076, L -0.007 ± 0.077, P -0.147 ± 0.084, S -0.078 ± 0.069, H 0.096 ± 0.14
C34: H -0.809 ± 0.38, Q -0.924 ± 0.26, S -0.947 ± 0.12, K -0.886 ± 0.25, F -0.729 ± 0.071, D -0.269 ± 0.12, L -0.915 ± 0.094, I -0.724 ± 0.32, T -0.776 ± 0.21, V -0.723 ± 0.12, A -0.81 ± 0.18, R -0.954 ± 0.15, G -0.951 ± 0.083, Y -0.922 ± 0.38, W -0.891 ± 0.23, M -0.649 ± 0.086
Y32: A -0.171 ± 0.073, P -0.883 ± 0.2, K -0.132 ± 0.047, W -0.068 ± 0.085, V -0.007 ± 0.056, S -0.026 ± 0.084, E -0.166 ± 0.1, M -0.101 ± 0.13, D -0.224 ± 0.12, T 0.093 ± 0.095, G -0.186 ± 0.069, Q -0.536 ± 0.23, R -0.393 ± 0.095, I -0.184 ± 0.13, C -0.059 ± 0.07, F -0.312 ± 0.14, L -0.104 ± 0.055, H -0.132 ± 0.1
K43: W -0.481 ± 0.16, D 0.011 ± 0.093, N -0.417 ± 0.18, E -0.002 ± 0.068, T -0.024 ± 0.1, L -0.066 ± 0.089, F -0.24 ± 0.21, R -0.094 ± 0.083, I 0.232 ± 0.1, S -0.006 ± 0.061, M -0.031 ± 0.093, C -0.053 ± 0.066, G -0.074 ± 0.052, A -0.049 ± 0.081, P -0.146 ± 0.09
G31: F -0.205 ± 0.15, Y -0.06 ± 0.13, R -0.719 ± 0.1, E -0.414 ± 0.11, D -0.597 ± 0.12, N -0.717 ± 0.3, I -0.685 ± 0.22, L -0.663 ± 0.066, H -0.559 ± 0.12, M -0.461 ± 0.32, C -0.352 ± 0.08, V -0.479 ± 0.067, P -1.08 ± 0.37, S -0.482 ± 0.059, A -0.092 ± 0.077, K -0.748 ± 0.13, W -0.901 ± 0.21
L48: K 0.011 ± 0.052, M 0.055 ± 0.1, N -0.295 ± 0.15, S 0.058 ± 0.089, A 0.023 ± 0.048, I -0.378 ± 0.12, T -0.047 ± 0.078, C 0.069 ± 0.12, P -0.15 ± 0.17, W -0.052 ± 0.053, H -0.209 ± 0.21, E -0.061 ± 0.07, G 0.074 ± 0.061, R -0.136 ± 0.079, V -0.049 ± 0.081, F 0.018 ± 0.11, Y 0.007 ± 0.049, Q 0.031 ± 0.09
C41: L -0.023 ± 0.061, V 0.068 ± 0.082, N -0.47 ± 0.24, F -0.331 ± 0.095, K -0.139 ± 0.084, T -0.035 ± 0.092, M -0.281 ± 0.15, E -0.414 ± 0.11, A -0.016 ± 0.072, Q -0.484 ± 0.17, I -0.012 ± 0.091, Y 0.02 ± 0.1, W -0.191 ± 0.073, H -0.662 ± 0.32, D -0.758 ± 0.33
G38: M -0.095 ± 0.085, F -0.071 ± 0.1, W -0.109 ± 0.071, E 0.077 ± 0.077, L -0.075 ± 0.051, A 0.032 ± 0.079, N 0.062 ± 0.14, D -0.003 ± 0.11, S -0.02 ± 0.064, Y -0.514 ± 0.23, T -0.282 ± 0.17, I -0.453 ± 0.17, Q -0.281 ± 0.15, P -0.081 ± 0.12, C -0.095 ± 0.066
K29: V -0.289 ± 0.071, W -0.256 ± 0.14, R -0.103 ± 0.082, F -0.224 ± 0.14, H -0.108 ± 0.24, E -0.386 ± 0.096, S -0.086 ± 0.072, T -0.289 ± 0.099, Y -0.011 ± 0.12, P -0.556 ± 0.078, M -0.052 ± 0.12, D -0.618 ± 0.21, I -0.252 ± 0.15, N 0.013 ± 0.12
Q30: F -0.756 ± 0.21, H -0.663 ± 0.21, V -0.617 ± 0.1, P -0.669 ± 0.18, G -0.52 ± 0.11, K -0.599 ± 0.3, L -0.765 ± 0.12, W -0.586 ± 0.2, R -0.519 ± 0.1, Y -0.693 ± 0.19, I -0.872 ± 0.24, N -0.495 ± 0.15, A -0.597 ± 0.12, E -0.589 ± 0.058, S -0.54 ± 0.061
Q44: W 0.003 ± 0.087, S 0.149 ± 0.089, C 0.011 ± 0.12, E 0.131 ± 0.058, T -0.226 ± 0.13, N -0.238 ± 0.35, Y 0.128 ± 0.052, L -0.057 ± 0.087, M -0.001 ± 0.12, H 0.083 ± 0.089, P -0.119 ± 0.079, I -0.294 ± 0.28, K 0.043 ± 0.099, A 0.011 ± 0.074, D 0.125 ± 0.12, V 0.079 ± 0.11, R 0.047 ± 0.065, F 0.072 ± 0.14
C37: P -1.07 ± 0.24, W -0.607 ± 0.11, K -0.933 ± 0.32, V -0.959 ± 0.098, M -0.904 ± 0.24, L -0.953 ± 0.1, G -1.14 ± 0.14, Y -0.708 ± 0.29, T -0.427 ± 0.1, A -1.25 ± 0.4, R -0.879 ± 0.077, E -0.967 ± 0.41, D -0.864 ± 0.17, Q -0.87 ± 0.32, S -0.625 ± 0.083, F -0.924 ± 0.18, N -0.824 ± 0.3
C45: E 0.068 ± 0.074, D -0.036 ± 0.13, A -0.527 ± 0.086, N -0.647 ± 0.34, K -0.643 ± 0.25, V -0.621 ± 0.068, F -0.514 ± 0.056, I -0.554 ± 0.21, L -0.976 ± 0.13, S -0.486 ± 0.094, M -0.57 ± 0.18, H -0.446 ± 0.13, Y -0.575 ± 0.061, P -0.977 ± 0.22, W -0.772 ± 0.19, G -0.347 ± 0.063, R -0.773 ± 0.083
D36: T -0.02 ± 0.11, E -0.021 ± 0.099, A -0.146 ± 0.069, I -0.028 ± 0.22, F -0.108 ± 0.16, R -0.055 ± 0.075, M -0.09 ± 0.11, P -0.2 ± 0.13, N -0.006 ± 0.12, S -0.028 ± 0.075, V -0.289 ± 0.096, G 0.118 ± 0.08, H -0.148 ± 0.29, Y -0.296 ± 0.14, K -0.139 ± 0.1, Q -0.209 ± 0.11, C -0.245 ± 0.14, L -0.051 ± 0.072, W -0.041 ± 0.068
H42: F -0.981 ± 0.23, I -0.939 ± 0.16, G -0.249 ± 0.082, S -0.319 ± 0.046, T -0.921 ± 0.22, N -0.815 ± 0.28, W -0.286 ± 0.1, C -0.416 ± 0.13, V -1.09 ± 0.35, K -0.849 ± 0.077, M -0.76 ± 0.15, R -0.916 ± 0.11, L -1.09 ± 0.1, A -0.841 ± 0.095, P -0.859 ± 0.16, Y -0.892 ± 0.38, Q -0.862 ± 0.33
